A word on the Kd: it is the free concentration of one partner at which half of the binding sites on the other are occupied at equilibrium, for simple one-to-one binding.

One series has as its system VASH1 full-length 44 kDa. The series can be described thus: SPR. Conditions: single-cycle kinetics; HBS-EP: 10 mM Hepes pH 7.4, 150 mM NaCl, 3 mM EDTA, 0.005% surfactant P20 (stated for immobilization); SA chip, Biacore T200, protein 16.25-300 nM, 1:1 …. (SPR reads the build-up and loss of mass on a sensor chip optically.)
The test system of series [1] is VASH1 27-kDa N-terminal part-GST. Put plainly: SPR. As to conditions: HBS-EP: 10 mM Hepes pH 7.4, 150 mM NaCl, 3 mM EDTA, 0.005% surfactant P20 (stated for immobilization); SA chip, Biacore T200, protein 16.25-300 nM, 1:1 ….

Substance VEGFAa IRES showed a Kd in the series on VASH1 full-length 44 kDa of 8 nM.
For the substance FGF1 IRES, the figures for the Kd (in series [1]; in the series with VASH1 full-length 44 kDa) were 2800 nM and 6.5 nM, respectively.
In the series on VASH1 full-length 44 kDa, EMCV IRES showed a Kd of 9.6 nM.
